{"source": "patent US20170321240", "key": {"[1]": {"tested_on": "Left TALEN Slc35c1 (synthetic construct (Xanthomonas AvrBs3 scaffold))", "test": "cell_activity", "conditions": "TALEN pair with right TALEN, 19-bp spacer; T7E1 assay 72 h, CHO cells"}, "[2]": {"tested_on": "Right TALEN Slc35c1 (synthetic construct (Xanthomonas AvrBs3 scaffold))", "test": "cell_activity", "conditions": "TALEN pair with left TALEN, 19-bp spacer; T7E1 assay 72 h, CHO cells"}}, "data": [{"substance": "Slc35c1 exon 1 left TALEN half-site", "values": [{"measurement": "activity (% gene modification)", "setting": "[1]", "value": 7.3}]}, {"substance": "Slc35c1 exon 1 right TALEN half-site", "values": [{"measurement": "activity (% gene modification)", "setting": "[2]", "value": 7.3}]}]}
